Several values for one entry are separate records, joined by “and”; a condition that tells them apart may be missing. Equal entries are not always repeated.
How the values were obtained:
[1] = target: AS25 Y45A-A57G monobody; experiment: ITC; Abl SH2 in the syringe (200 µM; 300 µM for AS25 Y45A-A57G) titrated to the monobody in the cell (20 µM; 30 µM for AS25 Y45A-A57G); 25 °C; 50 mM Tris pH 7.0, 250 mM NaCl, 5% glycerol; two replicate experiments
[2] = target: AS25 monobody; experiment: as above
[3] = target: AS25 A57G monobody; experiment: as above
[4] = target: monobody AS25; experiment: ITC; Abl SH2 in the syringe (200 µM, or 300 µM for AS25 Y45A-A57G) titrated to the monobody in the cell (20 µM, or 30 µM); 50 mM Tris pH 7.0, 250 mM NaCl, 5% glycerol; 25 °C
monobody AS25, sequence (main, as listed by the source): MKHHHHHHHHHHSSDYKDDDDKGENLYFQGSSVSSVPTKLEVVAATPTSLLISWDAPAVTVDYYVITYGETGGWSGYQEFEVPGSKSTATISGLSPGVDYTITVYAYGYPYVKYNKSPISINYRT

[5] = target: AS25_(A57G); experiment: as above
AS25_(A57G), sequence (main, as listed by the source A57G): as the sequence (main, as listed by the source) above, with A89G counted along it

[6] = target: AS25_(Y45A-A57G); experiment: as above
AS25_(Y45A-A57G), sequence (main, as listed by the source Y45A A57G): as the sequence (main, as listed by the source) above, with Y77A, A89G counted along it

AS25 Y45A-A57G monobody, sequence (main, as listed by the source Y45A A57G): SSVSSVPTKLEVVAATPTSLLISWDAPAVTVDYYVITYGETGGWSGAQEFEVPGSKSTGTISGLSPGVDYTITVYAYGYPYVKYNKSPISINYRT

With “Abl1 SH2 domain (from UniProt P00519 112-232) (domain or fragment)” the Kd [1] was 3170 nM, the stoichiometry N [1] was 0.792 and 0.788 and the Kd [2] was 210 nM. For the same substance, the stoichiometry N [2] was 0.861 and 0.869, the Kd [3] was 188 nM and the stoichiometry N [3] was 0.864 and 0.817. For the same substance, the Kd [4] was 180 nM, the stoichiometry N [4] was 1 and the Kd [5] was 156 nM. For the same substance, the stoichiometry N [5] was 1, the Kd [6] was 2690 nM and the stoichiometry N [6] was 1.
